Reference: US20240084003A1 (SIMCERE ZAIMING PHARMACEUTICAL, published 2024)

T1: monkey CD22 protein (ACROBiosystems, catalog number SI2-R52Ha) (monkey, UniProt F6W485 20-688)
T1 construct: commercial protein; also called monkey CD22-ECD; monkey CD22-ECD-His
T1 sequence: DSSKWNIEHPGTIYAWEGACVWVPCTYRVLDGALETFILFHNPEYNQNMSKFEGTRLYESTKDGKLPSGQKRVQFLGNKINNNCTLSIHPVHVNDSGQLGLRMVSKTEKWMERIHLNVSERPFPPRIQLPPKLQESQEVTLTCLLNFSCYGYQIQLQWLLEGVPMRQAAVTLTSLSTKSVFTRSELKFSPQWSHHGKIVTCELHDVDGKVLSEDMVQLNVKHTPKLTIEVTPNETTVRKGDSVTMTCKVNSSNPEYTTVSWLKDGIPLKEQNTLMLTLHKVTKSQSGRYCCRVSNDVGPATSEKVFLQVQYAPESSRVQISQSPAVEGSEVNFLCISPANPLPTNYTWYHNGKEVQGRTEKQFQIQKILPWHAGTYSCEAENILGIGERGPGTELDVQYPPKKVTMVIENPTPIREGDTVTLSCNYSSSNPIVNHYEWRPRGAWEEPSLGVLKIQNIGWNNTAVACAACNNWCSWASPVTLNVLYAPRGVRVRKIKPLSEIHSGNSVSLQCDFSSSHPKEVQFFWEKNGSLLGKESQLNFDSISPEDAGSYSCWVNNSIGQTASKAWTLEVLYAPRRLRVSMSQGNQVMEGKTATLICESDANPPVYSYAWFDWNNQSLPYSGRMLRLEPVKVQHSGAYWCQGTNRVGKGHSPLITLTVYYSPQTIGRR


How the values were obtained:
[1] = biological target: T1, monkey CD22 protein (ACROBiosystems, …); test: ELISA, coated monkey CD22 protein, antibody 10 nM
Experimental: (§1) In order to detect the binding activity of CD22 human-murine chimeric antibodies to CD22 protein, the purified human CD22-ECD-His protein obtained in Example 2 was diluted with PBS to a final concentration of 2 μg/mL, and then added to 96-well ELISA plate at 100 μl/well. The plate was sealed with plastic film and incubated overnight at 4° C., the plate was washed 2 times with PBS the next day, and then a blocking solution [PBS+2% (w/w) BSA] was added for blocking at room temperature for 2 hours. […] After incubation at 37° C. for 2 hours, the plate was washed 3 times with PBS. HRP (horseradish peroxidase)-labeled secondary antibody (purchased from Sigma, catalog number: A0170) was added, and incubated at 37° C. for 2 hours, and the plate was washed 5 times with PBS. TMB substrate was added at 50 μl/well, and incubated at room temperature for 30 minutes, then a stop solution (1.0 N HCl) was added at 50 μl/well.
(§2) In order to detect the species cross-binding activity of the chimeric antibodies, an ELISA plate was coated with commercial murine CD22 protein (ACROBiosystems, catalog number: SI2-M52Ha) and monkey CD22 protein (ACROBiosystems, catalog number: SI2-R52Ha), respectively, and the ELISA detection was performed according to the method in Example 5.1.

[2] = biological target: T1, monkey CD22 protein (ACROBiosystems, …); test: ELISA, coated monkey CD22 protein, antibody 0.1 nM
Experimental: as §1, §2

[3] = biological target: T1, monkey CD22 protein (ACROBiosystems, …); test: ELISA, coated monkey CD22 protein, antibody 100 nM
Experimental: as §1, §2

[4] = biological target: T1, monkey CD22 protein (ACROBiosystems, …); test: ELISA, coated monkey CD22 protein, antibody 0.01 nM
Experimental: as §1, §2

[5] = biological target: T2, CD22 on cynomolgus monkey peripheral blood B cells (cynomolgus monkey (Macaca fascicularis)); test: FACS, cynomolgus PBMC, CD20+ B cells, antibody 1 nM
T2 construct: whole, on cells; also called cynomolgus monkey B cells
Source text: (§3) The monkey peripheral blood mononuclear cells were extracted from fresh cynomolgus monkey peripheral blood (purchased from Shanghai Medicilon Inc.) according to the instructions of Ficoll-Paque Plus (purchased from GE Healthcare, catalog number: 171440-02). After the cell suspension was centrifuged, the cells were resuspended in PBS containing 1% BSA, and then the cells were counted. At the same time, the murine antibody Brilliant Violet 605 anti-human CD20 (catalog number: 302334, purchased from Biolegend) with monkey CD20 cross-binding activity and the chimeric antibodies to be tested (1 nM, 10 nM and 100 nM) were added and incubated at room temperature for 1 hour. After washing the cells three times, APC-labeled secondary antibody anti-human IgG Fc (catalog number: 409306, purchased from Biolegend) was added. After incubation at room temperature in the dark for 30 minutes, the cells were washed 5 times, gently resuspended with PBS containing 1% BSA, and detected and analyzed by FACS (FACS Canto™, purchased from BD Company). Wherein CD20 was used as a marker of B cells, and the CD20-positive B cell population was gated, the proportion of chimeric antibody positive cells was analyzed, and the proportion of chimeric antibody positive cell population to B cell population was calculated after treatments with the chimeric antibodies at the concentrations of 100 nM, 10 nM and 1 nM, respectively. The scatter plot of double-stained cells by Brilliant Violet 605-labeled CD20 and APC secondary antibody indirectly labeled chimeric antibody is shown in FIG. 10A-FIG. 10B (under the condition of 1 nM of chimeric antibody concentration).

[6] = biological target: T1, monkey CD22 protein (ACROBiosystems, …); test: ELISA, coated monkey CD22 protein, antibody 0.001 nM
Experimental: as §1, §2

[7] = biological target: T2, CD22 on cynomolgus monkey peripheral …; test: FACS, cynomolgus PBMC, CD20+ B cells, antibody 10 nM
Source text: as §3

[8] = biological target: T1, monkey CD22 protein (ACROBiosystems, …); test: ELISA, coated monkey CD22 protein, antibody 0.0001 nM
Experimental: as §1, §2

[9] = biological target: T2, CD22 on cynomolgus monkey peripheral …; test: FACS, cynomolgus PBMC, CD20+ B cells, antibody 100 nM
Source text: as §3

[10] = biological target: T1, monkey CD22 protein (ACROBiosystems, …); test: ELISA, coated monkey CD22 protein, antibody 0.00001 nM
Experimental: as §1, §2

OD450 [1] | OD450 [2] | OD450 [3] | OD450 [4] | Proportion of chimeric antibody positive cells to B cells (%) [5] | OD450 [6] | Proportion of chimeric antibody positive cells to B cells (%) [7] | OD450 [8] | Proportion of chimeric antibody positive cells to B cells (%) [9] | OD450 [10] | Binder
0.08 OD450 | 0.06 OD450 | 0.2 OD450 | 0.05 OD450 | 19% | 0.06 OD450 | 18% | 0.06 OD450 | 35% | 0.06 OD450 | F1.280.1 (antibody, human IgG1, kappa, V domains shown, human-murine chimeric IgG1 kappa) VH: QIQLVQSGPELKKPGETVKISCKASGYTFTTYGMSWVKQTPGKGLTWMGWINTDSGVPTYADDFKRRFAFSLEASATTAYLQINNLKNEDTATYFCARGGPDYWGQGTTLTVSS VL: DILLTQSPATLSVTPGETVSLSCRASQSIYKNLHWYHQKSHRSPRLLIKYASDSISGIPSRFTGSGSGTNFTLSINSVKPEDEGIYYCLQGYIVPLTFGAGTKLELKR
1.03 OD450 | 0.27 OD450 | 1.37 OD450 | 0.07 OD450 | 19% | 0.05 OD450 | 16% | 0.05 OD450 | 22% | 0.05 OD450 | F2.99.1 (antibody, human IgG1, lambda, V domains shown, human-murine chimeric IgG1 lambda; VL name legible) VH: QVTLKESGPGILQPSQTLSLTCSFSGFSLSTFPMGVGWIRQPSGKGLEWLAHIWWDDDEYYNPVLKSRLTISKDTSKKQVYLRIANVDTVDTATYYCTRANWDRWYFDVWGTGTTVTVSS VL: QLVLTQSSSASFSLGASAKLTCTLSRQHSAYTIEWYQQQPLKPPKYVMEVKKDGSHSTGDGIPDRFSGSSSGADRYLSISNIQPEDEAIYICGVGDTIKEHFVFGGGTKVTVLG
1.65 OD450 | 0.95 OD450 | 2.42 OD450 | 0.25 OD450 | 20% | 0.09 OD450 | 20% | 0.07 OD450 | 23% | 0.07 OD450 | F2.42.9 (antibody, human IgG1, lambda, V domains shown, human-murine chimeric IgG1 lambda; VL name legible) VH: QVTLKESGPGILQPSQTLSLTCSFSGFSLSTFDRGVGWIRQPSGKGLEWLAHIWWNDKKFYNPVLKSRLTISKDTSKNQVFLTIANVDSADTATYSCARIVWDKYYFDYWGQGIPLTVSS VL: QLVLTQSSSASFSLGASAKLTCTLSSQHSAYTIEWYQQQPLKPPKFVMDLKKDGSHSTGDGIPARFSGSSSGADRYLTISNIQPEDEAIYICGVGDTIKEQYVFGGGTKVTVLG
